Assay results taken from publication doi:10.1101/2021.04.27.441644 (bioRxiv, 2021).

Target: filamentous actin (F-actin) (rabbit, UniProt P68135 1-377)
Assay: co-sedimentation

Row | Binder | Kd [µM]
1 | CLIP-170 CG2 fragment (H1 206-288) (domain or fragment) KKGERELKIGDRVLVGGTKAGVVRFLGETDFAKGEWCGVELDEPLGKNDGAVAGTRYFQCQPKYGLFAPVHKVTKIGFPSTTP | ~90
2 | CLIP-170 CG2-S3 fragment (H1 203-350) (domain or fragment) GSIKKGERELKIGDRVLVGGTKAGVVRFLGETDFAKGEWCGVELDEPLGKNDGAVAGTRYFQCQPKYGLFAPVHKVTKIGFPSTTPAKAKANAVRRVMATTSASLKRSPSASSLSSMSSVASSVSSRPSRTGLLTETSSRYARKISGT | 20
3 | CLIP-170 S2-CG2-S3 fragment (H1 156-350) (domain or fragment) MVSSSPSTPSNIPQKPSQPAAKEPSATPPISNLTKTASESISNLSEAGSIKKGERELKIGDRVLVGGTKAGVVRFLGETDFAKGEWCGVELDEPLGKNDGAVAGTRYFQCQPKYGLFAPVHKVTKIGFPSTTPAKAKANAVRRVMATTSASLKRSPSASSLSSMSSVASSVSSRPSRTGLLTETSSRYARKISGT | ~10
